Source: patent US20160193292A1

Molecular target: JNK-interacting protein 1 (JIP-1) (UniProt Q9WVI9)
Assay: IP-FCM of lysates from OT-I T cells stimulated with OVA-Tet/α-CD28 in the presence of Tat-POSH vs Tat-cont.; competitor for POSH

Sequence of JNK-interacting protein 1 (JIP-1) (Q9WVI9 whole entry): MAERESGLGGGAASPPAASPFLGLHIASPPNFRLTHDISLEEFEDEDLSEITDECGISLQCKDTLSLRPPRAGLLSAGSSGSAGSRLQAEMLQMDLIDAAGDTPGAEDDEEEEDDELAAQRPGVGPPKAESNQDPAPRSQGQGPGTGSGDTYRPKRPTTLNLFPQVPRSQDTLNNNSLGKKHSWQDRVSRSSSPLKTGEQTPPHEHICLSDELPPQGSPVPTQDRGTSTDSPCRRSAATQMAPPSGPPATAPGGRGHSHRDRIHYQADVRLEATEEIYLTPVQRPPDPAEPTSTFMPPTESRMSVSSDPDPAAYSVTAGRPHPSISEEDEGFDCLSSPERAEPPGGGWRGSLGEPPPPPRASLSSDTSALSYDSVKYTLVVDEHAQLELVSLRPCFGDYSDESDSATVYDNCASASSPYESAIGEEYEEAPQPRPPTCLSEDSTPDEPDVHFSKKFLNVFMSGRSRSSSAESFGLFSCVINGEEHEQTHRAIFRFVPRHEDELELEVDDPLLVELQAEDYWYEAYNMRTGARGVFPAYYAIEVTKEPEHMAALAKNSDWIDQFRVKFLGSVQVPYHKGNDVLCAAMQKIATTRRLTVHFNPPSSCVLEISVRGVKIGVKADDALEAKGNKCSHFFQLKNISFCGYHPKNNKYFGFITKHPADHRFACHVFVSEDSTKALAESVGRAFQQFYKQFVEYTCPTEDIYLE

**Q.** “Tat-POSH SH3.3 (cell-permeable peptide containing the HIV Tat protein transduction domain fused to the SH3.3 of POSH)” was tested. Which percent of POSH/JIP-1 complexes disrupted did it give?
**A.** 30%
